Measurements reported in patent publication US20110287023A1 (AstraZeneca / MedImmune, published 2011).

T1: HMGB1 in joint lysate of adjuvant induced arthritis (AIA) rats (rat, UniProt P63159 2-215)
T1 construct: also called HMGB1 from arthritis joints; joint lysate HMGB1
T1 sequence (looked up): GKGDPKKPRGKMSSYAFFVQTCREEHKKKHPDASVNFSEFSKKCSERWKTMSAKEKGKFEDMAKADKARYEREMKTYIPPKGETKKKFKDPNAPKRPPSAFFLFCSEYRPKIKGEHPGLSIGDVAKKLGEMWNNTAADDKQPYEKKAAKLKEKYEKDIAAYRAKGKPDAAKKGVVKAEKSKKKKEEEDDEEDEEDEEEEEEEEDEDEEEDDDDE

T2: actively secreted HMGB1 of LPS treated HUVEC cells (UniProt P09429 1-215, limits assumed)
T2 construct: whole, on cells; immunostaining
T2 sequence (looked up): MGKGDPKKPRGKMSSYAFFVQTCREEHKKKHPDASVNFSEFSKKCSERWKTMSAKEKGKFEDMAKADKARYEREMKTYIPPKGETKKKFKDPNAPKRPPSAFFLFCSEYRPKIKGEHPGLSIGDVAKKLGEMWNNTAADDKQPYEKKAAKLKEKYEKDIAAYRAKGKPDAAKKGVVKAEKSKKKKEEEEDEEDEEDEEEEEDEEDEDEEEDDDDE

T3: released HMG1 from conditioned medium of necrotic 293H cells (human, UniProt P09429 1-215)
T3 construct: also called necrotic HMG1
T3 sequence (looked up): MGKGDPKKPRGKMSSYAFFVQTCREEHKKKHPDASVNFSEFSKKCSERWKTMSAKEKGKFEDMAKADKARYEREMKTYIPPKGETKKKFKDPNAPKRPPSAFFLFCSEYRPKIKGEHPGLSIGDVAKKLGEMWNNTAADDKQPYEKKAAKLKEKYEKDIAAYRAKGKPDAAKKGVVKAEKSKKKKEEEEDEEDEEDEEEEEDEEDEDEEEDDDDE

T4: activated HMG1 from LPS stimulated THP-1 cells (human, UniProt P09429 1-215)
T4 sequence (looked up): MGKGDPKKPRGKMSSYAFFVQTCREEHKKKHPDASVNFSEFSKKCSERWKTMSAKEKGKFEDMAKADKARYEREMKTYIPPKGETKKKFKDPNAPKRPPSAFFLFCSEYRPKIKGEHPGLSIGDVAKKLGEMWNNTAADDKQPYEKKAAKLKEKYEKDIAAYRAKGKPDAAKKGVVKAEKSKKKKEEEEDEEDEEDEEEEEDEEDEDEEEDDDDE


What was measured:
[1] = biological target: T1, HMGB1 in joint lysate of adjuvant …; assay: immunoprecipitation from AIA rat joint lysate, Western blot; paragraph 81 gives lane 2 as S16
Experimental: Immunoprecipitation and Western Blot: Anti-HMGB1 mAbs (G4 and S6) and isotype control were first biotinylated using EZ-Link Sulfo-NHS-LC-Biotin as instructed by the manufacturer (Pierce). After labeling, the mAb was tested for binding to HMGB1 by ELISA with unlabeled mAbs as controls. The biological samples, joint lysate (30 μl), was mixed with […] biotinylated G4, S6 or isotype control overnight at 4° C. in 300 μl IP buffer [containing 1×PBS, pH 7.2 (Invitrogen), 0.1% Tween 20, 0.5 M sodium chloride, 10 mM sodium butyrate, and a 1:100 dilution of Phosphatase Inhibitor Cocktail I (Sigma)]. For sepsis sera, Tween 20, sodium chloride, sodium butyrate, and Phosphatase Inhibitor Cocktail I were added to 500 μl sera with the same final concentration as IP buffer. Streptavidin Sepharose beads (GE Healthcare) were blocked in 4% BSA-PBS overnight at 4° C., then washed three times with PBS and resuspended in 1×PBS resulting in 50% slurry. The bead slurry (60 μl) was then added to the overnight mAb/sample mixture and mixed for 20 minutes at room temperature. The beads were washed once with PBS, five times with IP Buffer and then washed twice with PBS by spinning at 1000 g for two min. […] The bands were detected by LumiGlo substrate solution (KPL) after washing.

[2] = biological target: T5, recombinant HMG1 produced in E. coli as a calmodulin binding protein (CBP) fusion (human); assay: sandwich ELISA: antibody titrated and captured on anti-human IgG Fc, soluble recombinant HMG1 at 2 ug/ml, mouse anti-HMGB1 and anti-mouse IgG-HRP, OD 450
T5 construct: also called rHMG1; rHMGB1
Experimental: (§1) Sandwich ELISA (soluble HMG1): Immunoplates (EIA/RIA plate, High binding, Costar) were coated with anti human IgG Fc at 10 μg/ml in PBS (pH 7.2) and incubated at 4° C. overnight. The coating reagent was removed and the plates were rinsed briefly with PBS. The plates were then blocked with 4% milk for 1 hour at 37° C. and rinsed with PBS. The anti-HMG1 antibodies were diluted in 4% milk. For serial dilutions, the antibodies were used at a starting concentration of 20 μg/ml. The diluted anti-HMG1 antibodies were then added into plate and incubated for 1 hr at 37° C. The plate was then washed 10 times with PBST (PBS/0.1% tween 20) and incubate with antigen (HMGB1, 2 μg/ml; or 0.7 μg/ml for native HMGB1) in 4% milk and incubated at 37° C. for 1 h. The plate was then wash 10 times and incubated with mouse anti-HMGB1, 1 μg/ml in 4% milk at 37° C. for 1 h. The plate was washed 10 times and incubated with anti-mouse IgG-HRP at 1:1000 at 37° C. for 1 h. The plate was then washed and developed. HRP activity was detected with Sureblue HRP substrate (KPL). Plates were read at 450 nm using a Kinetic Microplate Reader (Molecular Devices).

[3] = biological target: T2, actively secreted HMGB1 of LPS treated …; assay: immunofluorescence on fixed LPS treated HUVEC, anti-human IgG-FITC; paragraph 81 gives the lower panels as G4
Experimental: Immunofluorescence: Intracytoplasmic (ic) HMGB1 was quantitated by direct immunofluorescence. HUVEC were harvested by trypsin-EDTA treatment and seeded on a glass coverslip. Once the cells are settled, they were stimulated with 0.2 μg/ml of LPS (Sigma) for 4 hours. The cells were fixed in 2% paraformaldehyde for 15 min and then permeabilized in 0.2% Triton X-100 for 2 min. Fixed and permeabilized cells were incubated with anti-HMGB1 antibodies at 1 μg/ml for 1 hour at room temperature. Cells were then washed to remove excess or nonspecifically bound primary antibody followed by incubation with anti human IgG conjugated with fluorescence (Pierce). The sections were mounted with fluoromount (Southern Associates, Birmingham, Ala.), and the images were processed with a Nikon microscope (Japan) and a SPOT imaging system (Diagnostic Instrument).

[4] = biological target: T3, released HMG1 from conditioned medium …; assay: sandwich ELISA: antibody titrated and captured on anti-human IgG Fc, released HMG1 in solution, mouse anti-HMGB1 detection, OD 450
Experimental: as §1

[5] = biological target: T4, activated HMG1 from LPS stimulated …; assay: sandwich ELISA: antibody titrated and captured on anti-human IgG Fc, activated HMG1 in solution, mouse anti-HMGB1 detection, OD 450
Experimental: as §1

Row | Binder | binding result [1] | EC50 (read off the curve) [2] [µg/mL] | binding result [3] | binding result [4] | binding result [5]
1 | human anti-HMG1 antibody S16 (antibody, IgG1, V domains shown, full length IgG1 made from a human Fab phage clone; also called ATCC PTA-6259) VH: EVQLLESGGGLVQPGGSLRLSCAASGFTFSWYSMLWVRQAPGKGLEWVSYISPSGGFTNYADSVKGRFTISRDNSKNTLYLQMNSLRAEDTAVYYCARWDYNSGWYYDHWGQGTLVTVSS VL: DIQMTQSPDTLSLSPGERATLSCRASQSVNSRNLAWYQQKPGQAPRLLIYGASTRATGIPDRFSGSVSGTEFTLTISSLQPDDFATYYCQQYNSYFTFGQGTKLEIK | binds | ~0.08 |  |  | 
2 | human anti-HMG1 antibody G4 (antibody, IgG1, V domains shown, full length IgG1 made from a human Fab phage clone; also called ATCC PTA-6258) VH: EVQLLESGGGLVQPGGSLRLSCAASGFTFSWYDMTWVRQAPGKGLEWVSSISPSGGYTKYADSVKGRFTISRDNSKNTLYLQMNSLRAEDTAVYYCTTEFYDYLDVWGKGTTVTVSS VL: DIQMTQSPGTLSLSPGEGATLSCRASQSVSSTYLAWYQQKPGQAPRLLIYEASKRATGTPARFSGSGSGTDFTLSISSLEPEDFAVYYCQHRHNWPPQWTFGQGTKVEVK |  |  | binds | binds | binds
